Earlier results on one substance are cited in article PMC6359047.

What is called Ki is the dissociation constant of the complex between target and ligand, obtained from inhibition or displacement.

This data set concerns the target MT1-MMP (Homo sapiens) (UniProt P50281).

Sequence of TIMP-1 (P01033 24-207): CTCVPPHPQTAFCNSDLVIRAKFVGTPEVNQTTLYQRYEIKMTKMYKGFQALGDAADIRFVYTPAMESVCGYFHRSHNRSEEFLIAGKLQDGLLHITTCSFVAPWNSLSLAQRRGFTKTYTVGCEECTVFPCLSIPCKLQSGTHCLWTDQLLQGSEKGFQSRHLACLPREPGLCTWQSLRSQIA

On to TIMP-1 (from UniProt P01033), for which the Ki is 178 nM.
